# From patent publication US20220387586A1 (Hoffmann-La Roche, published 2022)
# B1: 0918 (bispecific antibody, human IgG1, kappa, L234A L235A)
# heavy chain 1 (aLAG3 25F7 heavy chain, hole, with PD1 0376 VH at the C-terminus): QVQLQQWGAGLLKPSETLSLTCAVYGGSFSDYYWNWIRQPPGKGLEWIGEINHNGNTNSNPSLKSRVTLSLDTSKNQFSLKLRSVTAADTAVYYCAFGYSDYEYNWFDPWGQGTLVTVSSASTKGPSVFPLAPSSKSTSGGTAALGCLVKDYFPEPVTVSWNSGALTSGVHTFPAVLQSSGLYSLSSVVTVPSSSLGTQTYICNVNHKPSNTKVDKKVEPKSCDKTHTCPPCPAPEAAGGPSVFLFPPKPKDTLMISRTPEVTCVVVDVSHEDPEVKFNWYVDGVEVHNAKTKPREEQYNSTYRVVSVLTVLHQDWLNGKEYKCKVSNKALGAPIEKTISKAKGQPREPQVCTLPPSRDELTKNQVSLSCAVKGFYPSDIAVEWESNGQPENNYKTTPPVLDSDGSFFLVSKLTVDKSRWQQGNVFSCSVMHEALHNHYTQKSLSLSPGGGGGSGGGGSGGGGSGGGGSEVQLLESGGGLVQPGGSLRLSCAASGFSFSSYTMSWVRQAPGKGLEWVATISGGGRDIYYPDSVKGRFTISRDNSKNTLYLQMNSLRAEDTAVYYCVLLTGRVYFALDSWGQGTLVTVSS
# heavy chain 2 (aLAG3 25F7 heavy chain, knob, with PD1 0376 VL at the C-terminus): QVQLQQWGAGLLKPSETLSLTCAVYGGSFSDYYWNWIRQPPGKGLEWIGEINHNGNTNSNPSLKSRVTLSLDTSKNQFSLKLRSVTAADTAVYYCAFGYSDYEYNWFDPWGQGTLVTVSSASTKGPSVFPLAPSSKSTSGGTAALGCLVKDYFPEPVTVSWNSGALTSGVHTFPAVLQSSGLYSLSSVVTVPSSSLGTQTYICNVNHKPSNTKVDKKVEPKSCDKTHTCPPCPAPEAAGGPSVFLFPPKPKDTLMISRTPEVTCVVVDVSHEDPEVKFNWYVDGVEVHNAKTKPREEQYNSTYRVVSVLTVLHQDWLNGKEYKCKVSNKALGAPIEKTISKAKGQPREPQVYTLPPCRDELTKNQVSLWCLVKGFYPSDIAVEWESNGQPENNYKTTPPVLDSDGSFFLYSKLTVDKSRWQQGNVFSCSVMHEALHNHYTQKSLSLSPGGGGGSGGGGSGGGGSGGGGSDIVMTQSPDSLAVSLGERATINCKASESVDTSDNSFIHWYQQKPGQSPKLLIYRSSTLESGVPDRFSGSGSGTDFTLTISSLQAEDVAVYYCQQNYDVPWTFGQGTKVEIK
# light chain (aLAG3 25F7): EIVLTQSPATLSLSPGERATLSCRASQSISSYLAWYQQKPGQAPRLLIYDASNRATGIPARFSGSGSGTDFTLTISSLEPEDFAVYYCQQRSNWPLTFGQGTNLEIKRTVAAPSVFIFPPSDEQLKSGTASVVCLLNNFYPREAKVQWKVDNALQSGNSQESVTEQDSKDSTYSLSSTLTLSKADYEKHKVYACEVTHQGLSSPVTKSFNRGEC
# notes: also called PD1/LAG3 0918
# Biological target: PD1 on PD1+LAG3+ human U2OS cells (UniProt Q15116 25-288)
# Test: cellular PD1/LAG3 dimerization assay on PD1+LAG3+ U2OS cells, chemoluminescence; the signal needs PD1 and LAG3 bound at once
# Procedure: For this specific interaction, the cytosolic C-terminal ends of both receptors were individually fused to heterologous subunits of a reporter enzyme.
# On the next day cell medium was discarded and replaced by fresh medium. Antibody or ligand dilutions were prepared and titrated amounts of indicated (bispecific) antibodies were added and incubated at 37° C. for 2 hours. Next, a substrate/buffer mix (e.g. PathHunterFlash detection reagent) was added and again incubated for 1h. For measuring chemoluminescence induced upon simultaneous binding and dimerization a Tecan infinite reader was used.
# Sequence of PD1 on PD1+LAG3+ human U2OS cells (Q15116 25-288): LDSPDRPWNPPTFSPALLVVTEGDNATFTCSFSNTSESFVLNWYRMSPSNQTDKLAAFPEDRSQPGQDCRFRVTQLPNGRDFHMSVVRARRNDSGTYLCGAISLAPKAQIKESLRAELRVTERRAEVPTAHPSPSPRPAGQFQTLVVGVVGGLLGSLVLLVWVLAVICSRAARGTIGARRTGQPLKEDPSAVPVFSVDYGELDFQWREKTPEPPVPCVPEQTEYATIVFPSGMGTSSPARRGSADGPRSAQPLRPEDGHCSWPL
binder,measurement,value
B1,EC50 (read off the curve),~0.4 µg/mL
